Measured values reported in patent publication US20240352438A1, “MEANS AND METHODS FOR DETOXIFYING OCHRATOXIN A” (DSM Austria GmbH, priority 2021, published 2024).

Experiments:
[1] = Thermostability assay: residual OTA detoxification activity after 10 min incubation at 45-99° C. (T50); assay type: physicochemical; settings: for T50 (temperature at which 50% of the initial activity was maintained): 0.1 mg/mL protein in 20 mM Tris-HCl pH 7.5, residual OTA detoxification activity relative to 4° C. reference aliquot; for T50 (temperature range in which 50% of the initial activity was lost after the incubation): 0.1 mg/mL in 20 mM Tris-HCl buffer pH 7.5
Method: Stability was determined in terms of thermostability. Notwithstanding, a person having skill in the art is aware that stability towards high temperature (e.g. more than 30° C.) often correlates with stability towards other non-standard conditions such as stability towards acidic or basic pH (e.g. below pH 6.5 or above pH 7.5, respectively), towards elevated salt concentrations, organic solvents or drying.
To determine the kinetic stability of the produced enzymes, thermostability assays were performed. To this end, purified protein samples were diluted to a protein concentration of 0.1 mg/mL in 20 mM Tris-HCl buffer pH 7.5 and aliquots were incubated in a thermocycler for 10 min at either 45, 55, 65, 75, 80, 85, 90, 95 or 99° C. After this incubation, the aliquots were stored at 4° C. until further analysis. A reference aliquot was stored at 4° C. throughout the incubation. Subsequently, all aliquots were assayed for residual OTA detoxification activity using the assay described in Example 3. Residual enzyme activities were calculated relative to the reference aliquot. The temperature range in which 50% of the initial activity was lost after the incubation (T50), in relation to the reference aliquot was determined.

[2] = OTA detoxification activity assay (specific activity, fluorescence reduction ex/em 390/450 nm); assay type: biochemical; settings: 37° C., 200 ng/mL OTA, 100 mM sodium phosphate buffer
How it was run: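 Recombinant enzyme preparation with 200 ng/mL OTA in 100 mM sodium phosphate, at pH 6.0 and pH 7.5, 37° C. Degradation followed as the fall in fluorescence at ex/em 390/450 nm. Specific activity taken from the initial linear slope; one unit degrades 1 μmol OTA per min at a starting OTA of […].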

Row | Molecule | T50 (temperature at which 50% of the initial activity was maintained) [1] | Specific OTA detoxification activities in U/g at pH 6.0 [2] | Specific OTA detoxification activities in U/g at pH 7.5 [2] | T50 (temperature range in which 50% of the initial activity was lost after the incubation) [1]
1 | 34 (protein, exemplary polypeptide) MELAIRNGIVFNGKEIIGKTNIYVREGKIVEVSREDHSAKMEIDAKDMFVMPGLIDAHIHLSGIKGGSLLKIMFEKPEYRVLRAAKWLEKLLLAGFTTVRDCGETVSLALKRALNDGIIGGPKVIAAGKPITQTFGHGELSHDVPLEFSKTMSFSEFCDGMESCIHAARKVLRDGADFIKIFATGGVLSQRDRPEHPQLSYEEIRAIVNEAEKVNTYVAAHAHGDRGARIAIEAGVKTLEHGTLLKDETLKLMKEKNVTLTPTLTIQELIFKYGKQIGVDEWGLQKITSVRENIANVVRKAKEYGVTIISGTDLGFETGLEEIDMGKNWMETVLLVERGGLSPIEALRASTYNAAMAIGINAGVIEIGKDADIIIINGDPTLNVREISKITHVIKNGKLTVENKSIKG | >95 °C |  |  | 
2 | 20 (protein, polypeptide 6) MTTRFRILTAVLSLLAASACAADAAPATPHTVVLRAARMFDGASGKLVERPQLTIVGNKIVRIAQADKAEVPAGAEVIDLGDSTLLPGFIDAHVHLSGQGSDNWYGDFFDNMMRFPAEQALYGAYYARITLEAGFTSVRDLGSTDWVALGLRNAIDAGKVPGPRMLVSNYAVGSTGGHADQDPIPPHKLPLAGPLQGVCNGPEECRAAVRYQIKYGANVIKFMPSGGVLSLSDPVDAPELSQDEMNAVIGESHAWGRKVAAHAHGDKAAKMAVAAGVDSIEHGSFIEDDTLRAMKAKNVYLVPTISAIAHVEEKIGTFPPVIAEKGRAAAAHLRQTFRHAVQIGVPIALGTDAGVGAHGTNAREFRYMVENGLTPAQSLLAGTSNAARLLGTIDKVGTLEAGKLADVVAVPGNPIADITVTERPVFVMKDGVVVRRGAVR | <45 °C | 49.73 U/g | 100.52 U/g | 
3 | 19 (protein, polypeptide 5) MLSLLAANACVADAAPAASRTIVLRAARMFDGASGKLVEHPQLTIVGNKIVRIAQSDNAEVPASAEVIDLGDATLLPGFIDAHVHLSGQSSDNWYGDFFDNMMRFPAEQALYGAYYACITLEAGFTSVRDLGSTDWVALGLRNAIDAGKVPGPRMLVSNYAVGSTGGHADQDPIPPHRLPLAGPLQGVCNGPEECRAAVRYQIKYGANVIKFMPSGGVLSLSDPVDAPELSQDEMNAVIGESHAWGRKVAAHAHGDKAAKMAVAAGVDSIEHGSFIEDDTLRAMKAKNVYLVPTISAIAHVEEKIATFPPVIAEKGRAAAAHSRQTFRHAVQIGVPIALGTDAGVGAHGTNAREFRYMVENGLTPVQSLLAGTANAARLLGIIDRVGTLEAGKLADIVAVPGNPVADITVTERPVFVMKDGVVVRRGAVR | 65 °C | 8.72 U/g | 10.91 U/g | 
4 | 74 (protein, exemplary polypeptide) MTTRTRILTAFLSLLAANACAADAAPAAPHTVVLRAARMFDGASGKLVDHPQLTIVGNKIVRIAQGDKAEVPAGAEVVDLGDATLLPGFIDAHVHLSGQSSDNWYGDFFDNMMRFPAEQALYGAYYARITLEAGFTSVRDVGSTDWVALGLRNAIDAGKVPGPRMLVSNYLVGSTGGHADQDPIPPHKLPLAGPLQGVCNGPEECRAAVRYQIKYGANVIKFMPSGGVLSLSDPVDAPELSQDEMNAVIGESHAWGRKVAAHAHGDKAAKMAVAAGVDSIEHGSFIEDDTLRAMKAKNVYLVPTISAIAHVEEKIGTFPPVIAEKGRAAAAHLRQTFRHAVQIGVPIALGTDAGVGAHGSNAREFRYMVENGLTPAQALLAGTANAARLLGTFDRVGTLEAGKLADVVAVPGNPIADITVTERPLFVMKDGVVVRRDAVR | <63.2 °C |  |  | 
5 | 78 (protein, exemplary polypeptide) MTTRTRILTAFLSLLAANACAADAAPAAPHTVVLRAARMFDGASGKLVDHPQLTIVGNKIVRIAQGDKAEVPAGAEVVDLGDATLLPGFIDAHVHLSGQSSDNWYGDFFDNMMRFPAEQALYGAYYARITLEAGFTSVRDVGSTDWVALGLRNAIDAGKVPGPRMLVSNYAVGSTGGHADQDPIPPHKLPLAGPLQGVCNGPEECRAAVRYQIKYGANVIKFMPSGGVLSLSDPVDAPELSQDEMNAVIGESHAWGRKVAAHAHGDKAAKMAVAAGVDSIEHGSFIEDDTLRAMKAKNVYLVPTISGIAHTEEKIGTFPPVIAEKGRAAAAHLRQTFRHAVQIGVPIALGTDAGVGAHGSNAREFRYMVENGLTPAQALLAGTANAARLLGTFDRVGTLEAGKLADVVAVPGNPIADITVTERPLFVMKDGVVVRRDAVR | 68.8-70.7 °C |  |  | 
6 | 75 (protein, exemplary polypeptide) MTTRTRILTAFLSLLAANACAADAAPAAPHTVVLRAARMFDGASGKLVDHPQLTIVGNKIVRIAQGDKAEVPAGAEVVDLGDATLLPGFIDAHVHLSGQSSDNWYGDFFDNMMRFPAEQALYGAYYARITLEAGFTSVRDVGSTDWVALGLRNAIDAGKVPGPRMLVSNYAVGSTGGQADQDPIPPHKLPLAGPLQGVCNGPEECRAAVRYQIKYGANVIKFMPSGGVLSLSDPVDAPELSQDEMNAVIGESHAWGRKVAAHAHGDKAAKMAVAAGVDSIEHGSFIEDDTLRAMKAKNVYLVPTISAIAHVEEKIGTFPPVIAEKGRAAAAHLRQTFRHAVQIGVPIALGTDAGVGAHGSNAREFRYMVENGLTPAQALLAGTANAARLLGTFDRVGTLEAGKLADVVAVPGNPIADITVTERPLFVMKDGVVVRRDAVR | 74.4-77.0 °C |  |  | 
7 | 79 (protein, exemplary polypeptide) MTTRTRILTAFLSLLAANACAADAAPAAPHTVVLRAARMFDGASGKLVDHPQLTIVGNKIVRIAQGDKAEVPAGAEVVDLGDATLLPGFIDAHVHLSGQSSDNWYGDFFDNMMRFPAEQALYGAYYARITLEAGFTSVRDVGSTDWVALGLRNAIDAGKVPGPRMLVSNYAVGSTGGHADQDPIPPHKLPLAGPLQGVCNGPEECRAAVRYQIKYGANVIKFMPSGGVLSLSDPVDAPELSQDEMNAVIGESHAWGRKVAAHAHGDKAAKMAVAAGVDSIEHGSFIEDDTLRAMKAKNVYLVPTISGIAHVEEKIGTFPPVIAEKGRAAAAHLRQTFRHAVQIGVPIALGTDAGTGAHGSNAREFRYMVENGLTPAQALLAGTANAARLLGTFDRVGTLEAGKLADVVAVPGNPIADITVTERPLFVMKDGVVVRRDAVR | 70.7-72.6 °C |  |  | 
8 | SEQ ID NO: 348: another exemplary OTA-hydrolyzing polypeptide, amidohydrolase family; mature, processed species of SEQ ID NO: 349 (protein, exemplary polypeptide) RAHIVEPVAIKAKRVFTGVTGAVIENGVVIVDDKGRIAAISRVVPKGAKVIDLGDATLLPGFIDAHVHLSGEMSDNWYKDFRDRMLRFPAEQAHYAARNAKKTLMAGFTTVRDVGSADWQASALRNAVNAGVIVGPRILASNYAIGATGGHGDGTPFPPDRVAPDGPLKGVCNGADQCRAAVRYQIKYGADVIKFMPSGGVLSLSDPVDVPELTQDEINAIISEAHAWHRKVAAHAHGDEAARMAVKAGVDSIEHGTFLTDETLKQMKKQGTYLVATLFAGEWVGMKADNYPPAVAEKARAAAAQMQRMFARAVKIGVPIAFGTDAGVEPHGLNAHEFSLMVKNGMSPKAALLAATREAAKLLGVIDRTGTLEPGKAADMVAVRGDPLADIKATEQVIFVMKGGKIYRNEVE |  | ~19 U/g | approximately 32 U/g | 85-90 °C
9 | SEQ ID NO: 336: another exemplary OTA-hydrolyzing polypeptide, amidohydrolase family; mature, processed species of SEQ ID NO: 337 (protein, exemplary polypeptide) VPAPPRPAVLKAARIFDSVSGHLEEPGLVVVAGAKIQAVGSDARIPDNAQVIDLGDATLMPGFIDAHVHLSSEMSDKWYEDWYKSMVRFPAEQALYGAHYAKATLEAGITTVRDLGSSDYISLGLRNAIKAGQIPGPRMLVANYAIGSTGGHADQDPVPPQRLAPAGPIQGVCNGPDECRAAVRYQLKYGADVIKFMPSGGVLSLSDPVDTPELTQEEMNAIVSEAHAWKRKVAAHCHGDRAAKMAIAAGVDSIEHGTFLQDDTLQEMKDKHIYLVPTLSAGYWVGLKADTYPPVIAEKARAASRQMQKMFQRAVKIGVPIAMGTDAGVEPHGQNAREFSLMTTNGLPPAQALLAATAKGADLLGISDQTGTLQPGKYADIVAVGGNPLLDIKATEHPLLVMKEGVIYVGGK |  | ~22 U/g | approximately 40 U/g | 90-95 °C
